Test results taken from the DeepSol protein solubility set.

Assay: soluble on expression in E. coli; label from the status in PepcDB or PDB records

MGSDKIHHHHHHMATNSSTEQSLTKKVWNLATTLAGQGIGFTDYITQLTYLLFLKMDAENVEMFGEESAIPTGYQWADLIAFDGLDLVKQYEETLKLLSELDNLIGTIYTKAQNKIDKPVYLKKVITMIDEEQWLIMDGDVKGAIYESILEKNGQDKKSGAGQYFTPRPLIQAMVDCINPQMGETVCDPACGTGGFLLTAYDYMKGQSASKEKRDFLRDKALHGVDNTPLVVTLASMNLYLHGIGTDRSPIVCEDSLEKEPSTLVDVILANPPFGTRPAGSVDINRPDFYVETKNNQLNFLQHMMLMLKTGGRAAVVLPDNVLFEAGAGETIRKRLLQDFNLHTILRLPTGIFYAQGVKANVLFFSKGQPTKEIWFYDYRTDIKHTLATNKLERHHLDDFVSCYNNRVEIYDAENNPQGRWRKYPVDEIIARDKTSLDITWIKPGGEVDDRSLAELMADIKDKSQTISRAVTELEKLLANIEEN
soluble on expression in E. coli: not soluble

MSLNDLLTRRAVVAGMGVLGLGLLAGCSPARGLEFKYGKNMSNEILGRKFSLKDPQGNVRTLSSFYGSMPMVFFGFTQCPAVCPTTLARAAQIRKLLRGRDRDLFQVVFITLDPERDTPEVLDAYVKAFDPTFTALTGTPEEIAAVAKEFKVFYEKVPAGDTYTISHSSTSYVYDTRGTLRLSLGHSLNAKECAEDLVTLMEIEGHHHHHH
soluble on expression in E. coli: soluble

GSHSLRYFYTAVSRPGLGEPWFIIVGYVDDMQVLRFSSKEETPRMAPWLEQEEADDWEQQTHIVTIQGQLSERNLMTLVHFYNKSMDDSHTLQWLQDCDVEPDRHLCLWYNQLAYDSEDLPTLSENPSSCTVGNSTVPQISQHLEGHCSDVLQKYLEKGKERLLRSDPPKAHVTRHPRPEGDVTLRCWALGFYPADITLTWQKDGEELTQDVEFVETRPAGDGTFQKWAAVVVPLGKVQSYTCHVDHEGLPEPLTLRWEP
soluble on expression in E. coli: soluble

MSLGQEEAGKLLDSLAEPSKKAYRINSLKEGAVVYPQEEAVPGIPNAYYGEVSGKDPEWTAGLVYSQDPAAMFPAQAIPVKPGDKVLDLCAAPGGKSTALAQKLQGEGLLVANEISPSRAKILRENLERWGVSNAVVTNCDSFALSARFPGFFDAILVDAPCSGEGMFRKSEDAIKYWSQENVDLCADRQREILTEAVKMLKPGGYLLYSTCTFSPEEDEEIVSWLLDEYGFKLLPIAAEKAAPGRPEWGNGDASLANCARFWPQDGVGEGQFVASLQKAAGEESFAAEAGEVFSPVRKNKDKKKKGKGKNKGNRSSLERPSKEESCYISEAIAGFNWPESLASWPSQMLKSQDHVFVPALEPEQLKGIKVLSNGLELGILKKKRFEPSHQLAEVLGQVDQERVVDLTEEEYDHYLHGESLQVNSSLKGFVLVSCRGMIFSFGKLSGKGQLKNYYPKGLRQKGIITITTDPNSSSVDKLAAALEHHHHHH
soluble on expression in E. coli: soluble

GMTISRNYDQEIKDTAGHKYAYNFDFDVMHPFMVRAFTPFFRPGNLLELGSFKGDFTSRLQEHFNDITCVEASEEAISHAQGRLKDGITYIHSRFEDAQLPRRYDNIVLTHVLEHIDDPVALLKRINDDWLAEGGRLFLVCPNANAVSRQIAVKMGIISHNSAVTEAEFAHGHRCTYALDTLERDASRAGLQVTYRSGIFFKALANFQWDQILQTDILSKEYLDGCYQLGQQYPDLCASIFLLCEKGINQ
soluble on expression in E. coli: soluble

MSLKKEVVVIGGGIVGLSCAYSMHKLGHKVCVIEKNDGANGTSFGNAGLISAFKKAPLSCPGVVLDTLKLMLKNQAPLKFHFGLNLKLYQWILKFVKSANAKSTHRTMALFERYGWLSIDMYHQMLKDGMDFWYKEDGLLMIYTLEESFEKKLKTCDNSGAYKILSAKETKEYMPVVNDNICGSVLLTENAHVDPGEVMHSLQEYLQNVGVEFLYNEEVIDFEFKNNLIEGVITHKEKIQAETIILATGANPTLIKKTKNDFLMMGAKGYSITFKMPEELKPKTSSLFADIFMAMTPRRDTVRITSKLELNTNNALIDKEQIANMKKNLAAFTQPFEMKDAIEWCGFRPLTPNDIPYLGYDKRYKNLIHATGLGWLGITFGPAIGKIIANLSQDGANEKNADIMLFSAFFRDEGHHHHHH
soluble on expression in E. coli: not soluble

MTILFARNIEKGFGDRTLFTLPSLEIQAQDRIGIVGVNGAGKSTLLQILSKEIEADKGIVTHHSSISIIPQISEELPKVASSTAKGKWNISNISNSMSGGERMRLKIAHALEQDAGILFADEPTSHLDMFGTEQLEKALLSYKGALVLISHDREFLDNICTKIIEIEDGIIQEYKGNYSNYRKQKERERTQKQAEYEQYINEKERLEKSILQKKQRASSMTKIPTRFSSSESKLYKLSGANGQEQVSKAAKALETRLEKLEKKEKPKELSQAQFDVQYHTPIHSKVAVQFNKATKKIGDLTLFKNMNGTIAPGAKLAILGANGSGKTTLFNMLLANERGIQLSKSCKIGYFEQTLSILKTDKTILENVLEETNYTESFVRTILARLLFRREDVHKPVHVLSGGERMKVALAKVFLGNYNMLLLDEPTNYLDLATQEELESMLQEYPGTILFISHDRAFIRSVADHILQVDESEPRVFHGNYEQYTNRTADASVNVTAQELLRLQTKLTEIIGRISIPNHHDDITSLEQEYETLLVKIRKCKEAL
soluble on expression in E. coli: not soluble

MSMLQRPGYPNLSVKLFDSYDAWSNNRFVELAATITTLTMRDSLYGRNEGMLQFYDSKNIHTKMDGNEIIQISVANANDINNVKTRIYGCKHFSVSVDSKGDNIIAIELGTIHSIENLKFGRPFFPDAGESIKEMLGVIYQDRTLLTPAINAINAYVPDIPWTSTFENYLSYVREVALAVGSDKFVFVWQDIMGVNMMDYDMMINQEPYPMIVGEPSLIGQFIQELKYPLAYDFVWLTKSNPHKRDPMKNATIYAHSFLDSSIPMITTGKGENSIVVSRSGAYSEMTYRNGYEEAIRLQTMAQYDGYAKCSTIGNFNLTPGVKIIFNDSKNQFKTEFYVDEVIHELSNNNSVTHLYMFTNATKLETIDPVKVKNEFKSDTTTEESSSSNKQ
soluble on expression in E. coli: soluble

MSLIDYQEVLSRYRPTQEEENKLKIISDDIIRKINSICRSRGLRAEAVIVGSYAKGTNLRDGDLDIFIAFDRDYPEEIINTEGLHIGHAVIPNGREKYAEHPYVSGEIGGVKIDVVPCYKMSFGDKKISAVDRTLLHTEYVNGHLDEKGRDEVRLLKIFTKSIGVYGAEARTFGFSGYLCELLVIRFGSFENVIRYFSKAKGRVLIDLDERFRDPMVLIDPVDPDRNVASPVSLESLSRMKIASKMFLSSPDEGFFQIEHNGKNVQYHDRGTCIMIYSLPKPDLTDDVIYPQVYRFRSVLQKIMESHEIRVISSEIDVSDRIYVLIETPACAEERIRVHTGPPVDTDNAVDFVNSWKARDRSRGPYIVADRLYVDVFTGQRSIEDIVRQEIFNYSIGKNLDRFKKSMEIMKFNVGMKSLPVLDKFFGADVFRKEGHHHHHH
soluble on expression in E. coli: soluble

AHHHHHHGSKKITISSLLLLLLISTNLNLAYDSQESGIKNIIILIGDGMGMSHVQITKLVYGHLNMEEFPIIGFELTESLSGEVTDSAAAGTAIATGVKTYNRMISVTNITGKVTNLTTLLEIAQVLGKSTGLVTTTRITHATPAVFASHVPDRDMEEEIARQLIAHRVNVLLGGGRKKFDENTLKMAKEQGYNIVFTKEELEKAEGEFILGLFADSHIPYVLDRKPEDVGLLEMTKKAISILEKNPNGFFLMIEGGRIDHAAHENDIASVVAETKEFDDVVGYVLEYAKKRGDTLVIVLADHETGGLGLGLTYGDAINEDVIRNINASVSKIASEIRATNDIKRVIKKYTGFELTEDEINYIEEAINLADEYALQNAIADIINKRVGVGFVSHKHTGAPVSLLAYGPGAENFAGFLHHVDTAKLIAKLMLFGKKDIPVTILGISGVKGDITGDFKVDEQDAYVTLMMLLGERVDTELERKVDMNNNGIIELGDVLLILQES
soluble on expression in E. coli: soluble

MAHHHHHHMRRSVIRTRKEFLERKQHERVHEAIHARKEQFRSAVETATPLPGHLKKDALALKKFTELDDAQTRNLTTTVDDEYANAGQEDPHVLVTTSRNASQKLLEFAKEVRLIVPNAVRMNRGNLSVHQLMDAARKENYTDVLVLQESQGVPDSLIVSHLPLGPTVTFTIHNLVARHDIDGVGTMSEQYPHLVFENFSTKLGIRIKDVLRYLFPVPKADASRVLTFDNENDFISFRHHTFKKEKGKKQVELTEVGPRFELTPYRIVLGTLEMDDAETEWVLQPYMNTAKKRRLL
soluble on expression in E. coli: soluble

MGNYLNPDNSKFQRAVNSDIYVDKTGLIKYTNRVINTMQAYVCVSRPRRFGKSMAADMLTAYYSRGCDSRELFAGLEIAKDENFGGYLNKYDTVFLNVQEFLSRSSDVKELIARIKQRVIRELTRQYPDVELFDSTDLAETMQDIYAESKCPFVLIIDEWDCIFREFKNDKEAQEKYLDFLRDLIKDKSYIHLAYMTGILPIKKYGTHSALNMFDEFSMIDPGPLASYVGFTESEVEKLCGEYQMDIDEIRNWYDGYSFEEVPSVYSPKSVISCMRLGRLGNYWNQTETFEALQLYIDMNFEGLRDDILSMLAGEEVPVNTGSFTNDMATFRTEDDVLTLLIHLGYLGYRYATKTVFIPNGEIRAEFVNAVSVSDWGEVSNALKNSADTLQAIWQGREKQVAEGIRQAHFETSHIQYNDENALSYTISLALYAARNFYTVHRELSGGKGFADLVFIPRKRFMDKPALVVELKWDKDVAGAITQIREKEYCRSLEEYHGKLLLVGINYDKKTKEHSCKIEEYRK
soluble on expression in E. coli: not soluble

MGSDKIHHHHHHMTTRQPKTEADVLAETANLILDKYFHNQKNICTYDKIELARMLGLAEDNKKSDYALFHFIKALRYVVLGNFNEAINSYEATLRIPNSHAGILSNYATTLIILGELEQAKEMLIKCLNETDDGVSNLEYFANIIELYLLSTLDETLLQHAGNMKDSTLDKYSNILKLKTDINKIDISIQDYQEFTGVLIKFIFDKTRQIYQPRFSIDNGLDRQLNIEAFLNINPEEASYLNTEFRNQYLDYIFDNERHDLLGKFVVFFRQNKNREDGTEKPKAFYLGTNRELEA
soluble on expression in E. coli: not soluble

MNTNREPRFHDKVQAACYALMLDEHGVPADTGTLLYTKNAAVDRSEASGDLSPAKEFSIGRGFLEFVVRERNHLAALEASDGPPTGYEADAKCDYCFEQDTCMVVSGRLDQESKAGRIGDPVPAEERAYFDELYDAIEAERGAIHDEYRKLWEQSPDERAADDRAVVGLSPAEQTELPDGRWRLTATRPGSAASKIREGDRVLASDGDPVAGRAEMARVERLDADRVEVTTDEPVSLCRLDVYPSELEHHHHHH
soluble on expression in E. coli: soluble

MIKLSNITKVFHQGTRTIQALNNVSLHVPAGQIYGVIGASGAGKSTLIRCVNLLERPTEGSVLVDGQELTTLSESELTKARRQIGMIFQHFNLLSSRTVFGNVALPLELDNTPKDEVKRRVTELLSLVGLGDKHDSYPSNLSGGQKQRVAIARALASNPKVLLCDEATSALDPATTRSILELLKDINRRLGLTILLITHEMDVVKRICDCVAVISNGELIEQDTVSEVFSHPKTPLAQKFIQSTLHLDIPEDYQERLQAEPFTDCVPMLRLEFTGQSVDAPLLSETARRFNVNNNIISAQMDYAGGVKFGIMLTEMHGTQQDTQAAIAWLQEHHVKVEVLGYV
soluble on expression in E. coli: soluble

MKLTDRWFTSISEDEKGNIVFVNGRLELDEFRLSGKLKIRIEIRWPYEADEQGLPTESAGKRIEEIELLIRKAMEKDKLAIMTGNYTGGGTKYWVYYARTERVFGERLNEVLAPYETLPLEIECEVDTDWEEYLDMLSMKDENSI
soluble on expression in E. coli: not soluble

MGSDKIHHHHHHMGSFALPANAQCEAKNDAFQSGEHVMYDLYFNWKFVWVKAGIASLTTNATTYHSEPAYRINLLALGSKRADFFFKMRDTLTCVMGEKLEPRYFRKGAEEGKRYTVDEAWFSYKDGLCFAKQKRTFRDGEVQESEESDSRCIYDMLTILAQARSYDPADYKVGDKIKFPMATGRKVEEQTLIYRGKENVKAENGVTYRCLIFSLVEYDKKGKEKEVITFFVTDDKNHLPVRLDMFLNFGSAKAFLNDVRGHRHPLTSIVK
soluble on expression in E. coli: not soluble
